Measurements from publication PMC4388676 (PLoS ONE, 2015).
Entries after “also recorded” stand apart in the source; their conditions may differ. Bridge positions count the residues as written; N and C are the ends. Square brackets hold non-standard residues; d marks the D form. Ends that are not written are not given here. Peptide text beside a SMILES is read from it. * marks the point of attachment. FITC = O=C1OC2(c3ccc(O)cc3Oc3cc(O)ccc32)c2ccc(NC(=S)*)cc21; S5 = C=CCCC[C@](C)(N)C(=O)O

Tests used:
[1] = Serum stability followed by LC-MS; assay type: in vitro ADME; conditions: 25% human serum, 37°C, peptide 0.3 μM, time points 0, 60, 120, 180, 360 and 900 min, TFA precipitation, LC-MS read-out, triplicate
Method: Human serum (Sigma Aldrich-Italy) was centrifuged at 13000 rpm for 10 min to remove lipids;the supernatant was collected and incubated at 37°C for at least 15 min. The assay started upon the addition of the peptides to the 25% serum for a final peptide concentration of 0.3 μM.
200 μL aliquots of the samples were taken after the following time points: 0, 60, 120, 180, 360 and 900 min. The aliquots were mixed with 100 μL of 15% TFA and incubated at 4°C for at least 15 min to induce the precipitation of the serum proteins. The supernatants were collected for each sample after centrifugation at 13000 rpm for 10 min and stored at -20°C.
The serum stability of peptides was followed by LC-MS analysis. using a Phenomenex Jupiter C4 (150 × 2 mm; 5 μm; 300 Å) and a method consisting of an isocratic step with H2O (0.1% TFA)/CH3CN (0.1% TFA) (70:30) for 10 min and a linear gradient of H2O (0.1% TFA)/CH3CN (0.1% TFA) from 30 to 80% of CH3CN (0.1% TFA) in 20 min at flow rate of 200 μL/min.
The assays were performed in triplicate.

[2] = Human serum (Sigma Aldrich-Italy), 25% serum; conditions: 37°C, up to 900 min
KCTD11^BTB = biological target: T1, KCTD11^BTB (Homo sapiens, UniProt Q693B1); experiment: ELISA binding of biotinylated peptides to His-TrxA-KCTD11^BTB; conditions: 0.8 μM biotinylated peptide on streptavidin-coated wells; His-TrxA-KCTD11^BTB 0.4-15.6 μM in PBS; anti-His/HRP read at 490 nm; mean of triplicate experiments
T1 construct: tetrameric BTB domain of KCTD11^BTB (residues 15–116) was generated; thioredoxin A (TrxA); made in house
T1 sequence (Q693B1 15-116 isoform Q693B1-2): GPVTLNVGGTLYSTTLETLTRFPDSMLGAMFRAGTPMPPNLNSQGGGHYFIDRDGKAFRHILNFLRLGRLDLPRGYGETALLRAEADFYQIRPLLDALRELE
Method: For ELISA assays, 5 μg/mL streptavidin in phosphate/citrate buffer pH 5.0 was incubated overnight at 37°C for coating. Firstly, wells were coated with 0.8 μM biotinylated Cul3^49-68 peptides in phosphate buffered saline (PBS) 1X for 1 h at room temperature. Binding step was performed with increasing concentrations (0.4, 0.75, 1.5, 3.8, 7.6 and 15.6 μM) of His-TrxA- KCTD11^BTB in PBS 1X. His-TrxA was used as negative control in the same concentrations. As blocking solution 3% gelatine, 0.05% Tween-20 in PBS 1X was used for 1 h at 37°C. Washes were executed with PBS 1X. To reveal the occurred interaction mouse anti-His monoclonal antibody was incubated in 1:1000 dilution at room temperature for 2 h; then, horseradish peroxidase-conjugated anti-mouse antibody (Pierce) was diluted 1:10000 in 1% gelatin, PBS 1X and incubated at 20°C for 1 h. The colorimetric reaction has been carried out with SIGMAFAST OPD reagent (Sigma Aldrich), according to the manufacturer’s instructions. Finally, a Model 680 Microplate Reader (Bio-Rad, Hercules, CA-USA) has been used for readings at 490 nm; data were processed by a Microplate Manager 5.2 program. The reported data are mean values of triplicate experiments.

KCTD5^BTB = biological target: T2, KCTD5^BTB (UniProt Q9NXV2 44-145); experiment: fluorescence polarisation; 1 uM FITC-Cul3^49-68LA, KCTD5^BTB over 0.1 nM to 5 uM; triplicates; conditions: both partners purified
T2 construct: KCTD5, folded BTB domain, residues 44-145; also called BTB of the pentameric KCTD5; pentameric KCTD5^BTB; source: recombinant from the pET28/KCTD5^BTB plasmid, expressed and purified as elsewhere reported [33, 34]
T2 sequence (Q9NXV2 44-145): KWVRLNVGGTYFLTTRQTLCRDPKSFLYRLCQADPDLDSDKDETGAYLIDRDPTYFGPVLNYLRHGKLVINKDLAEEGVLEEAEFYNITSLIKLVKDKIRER

His-TrxA-KCTD11^BTB = biological target: T3, His-TrxA-KCTD11^BTB (UniProt Q693B1-2 15-116); experiment: fluorescence polarisation; 2 uM FITC-peptide, KCTD11^BTB added at increasing concentration (0.1-15 uM in the methods; 0.1 nM to 20 uM in the legend); KCTD11^BTB concentration as monomer; triplicates; conditions: both partners purified
T3 construct: KCTD11, folded BTB region of the long form (isoform 2, UniProt Q693B1-2); residues 15-116 are stated for KCTD11^BTB in the modelling paragraph; numbers count on: the long form (isoform 2); The tags are named and used for detection in the ELISA; also called recombinant KCTD11^BTB; BTB of the tetrameric KCTD11; source: recombinant fusion protein with thioredoxin A, expressed and purified as …
T3 sequence (looked up): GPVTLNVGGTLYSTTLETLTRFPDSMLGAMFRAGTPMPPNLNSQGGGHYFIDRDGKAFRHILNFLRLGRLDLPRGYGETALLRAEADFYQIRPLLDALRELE

Molecule: Ac-NSGLSFEELYRNAYTMVLHK-NH2 [Cul3^49-68]
- half-life at 0.3 μM ([1]; read-out: Estimate t1/2 in serum (converted)): 7 h

Molecule: CSCC[C@H](NC(=O)[C@@H](NC(=O)[C@H](Cc1ccc(O)cc1)NC(=O)[C@H](C)NC(=O)[C@H](CC(N)=O)NC(=O)[C@H](CCCNC(=N)N)NC(=O)[C@H](Cc1ccc(O)cc1)NC(=O)[C@]1(C)CCCC=CCCC[C@](C)(NC(=O)[C@H](CC(C)C)NC(=O)CNC(=O)[C@H](CO)NC(=O)[C@H](CC(N)=O)NC(C)=O)C(=O)N[C@@H](Cc2ccccc2)C(=O)N[C@@H](CCC(=O)O)C(=O)N[C@@H](CCC(=O)O)C(=O)N1)[C@@H](C)O)C(=O)N[C@H](C(=O)N[C@@H](CC(C)C)C(=O)N[C@@H](Cc1c[nH]cn1)C(=O)N[C@@H](CCCCN)C(N)=O)C(C)C [Cul3^49-68SL] (Ac-NSGL[S5]FEE[S5]YRNAYTMVLHK-NH2; staple 5-9)
- Estimate t1/2 in serum [1]: ~7 h

Molecule: Ac-NSGLSFEELYRNAYTMVLHK-NH2
- cleaved bond [2]: Tyr58-Arg59, major
- fragment found [2]: NAYTMVLHK-NH 2; also recorded: Ac-NSGLSFEELYR

Molecule: Cul3^49-68AA: non-stapled variant of Cul3^49-68 in which Tyr58 and Tyr62 were replaced with Ala residues (NSGLSFEELARNAATMVLHK-NH2; not fully specified (N-terminus))
- Binding to recombinant KCTD11^BTB, qualitatively checked by ELISA (KCTD11^BTB): No relevant binding; also recorded: completely unable to bind KCTD11^BTB

Molecule: {FITC}-NSGLSFEE[S5]YRN[S5]YTMVLHK-NH2 (staple 9-13) [FITC-Cul3^49-68LA]
- Kd (KCTD5^BTB): 97 nM
- Kd (His-TrxA-KCTD11^BTB): 305 nM

B1: FITC-Cul3^49-68 (peptide)
peptide: {FITC}-NSGLSFEELYRNAYTMVLHK-NH2
notes: Cullin 3 (Cul3), first part of the peptide 49-68; Cullin 3 (Cul3), second part of the peptide 49-68; also called wild-type peptide; source: synthetic peptide (solid phase, Fmoc), RP-HPLC purified
- Kd (His-TrxA-KCTD11^BTB): 497 nM

Molecule: {FITC}-NSGLSFE[S5]LYR[S5]AYTMVLHK-NH2 (staple 8-12) [FITC-Cul3^49-68EN]
- Kd (His-TrxA-KCTD11^BTB): 620 nM
